Assay results as given in the supplement of paper PMC7877785.
± gives the uncertainty stated by the source.

Test: self-splicing fitness, log relative to wild type (ln ratio); higher = more splicing; Tetrahymena group I intron in knt gene, E. coli kanamycin selection, DiMSum; sequences stand for … in CUCUCU…GGAGGGAAAAGUUAUCAGGCAUGCACCUGGUAGCUAGUCUUUAAACCAAUAGAUUGCAUCGGUUUAAAAGGCAAGACCGUCAAAUUGCGGGAAAGGGGUCAACAGCCGUUCAGUACCAAGUCUCAGGGGAAACUUUGAGAUGGCCUUGCAAAGGGUAUGGUAAUAAGCUGACGGACAUGGUCCUAACCACGCAGCCAAGUCCUAAGUCAACAGAUCUUCUGUUGAUAUGGAUGCAGUUCACAGACUAAAUGUCGGUCGGGGAAGAUGUAUUCUUCUCAUAAGAUAUAGUCGGACCUCUCCUUAAUGGGAGCUAGCGGAUGAAGUGAUGCAACACUGGAGCCGCUGGGAACUAAUUUGUAUGCGAAAGUAUAUUGAUUAGUUUUGGAGUACUCGUGGUCG
Method in brief: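 DiMSum derived fitness as the error-weighted combination of fold changes across replicates, kanamycin versus no kanamycin, normalised to wild type. E. coli BL21(DE3) held the library, which randomised all eight P1ex-region intron nucleotides within the knt kanamycin-resistance gene on pET-22b(+). Six replicate transformations grew overnight at 37°C or 30°C on LB agar with or without 25 μg/mL kanamycin, also containing 100 μg/mL carbenicillin, 50 μM IPTG and 0.2% rhamnose, and pooled colonies were amplicon-sequenced on an Illumina HiSeq 2500.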

Sequence	self-splicing fitness (ln) (30 °C)	self-splicing fitness (ln) (37 °C)
GAUUAGCAAUAUUACGCCGA	-1.03 ± 0.42	
UUGAAGCAAUAUUACGACAC	-1.07 ± 0.13	-0.278 ± 0.2
CGUAAGCAAUAUUACGUAGG	-1.09 ± 0.082	-0.149 ± 0.11
CCAGAGCAAUAUUACGCGCG	-1.19 ± 0.1	-0.59 ± 0.14
CUCUAGCAAUAUUACGAAUG	-1.55 ± 0.091	-1.1 ± 0.11
UACGAGCAAUAUUACGUUCG	-3.48 ± 0.25	-2.76 ± 0.25
AAUCAGCAAUAUUACGCGUU	-0.956 ± 0.057	-0.765 ± 0.076
AGGGAGCAAUAUUACGUAUU	-2.96 ± 0.18	-2.15 ± 0.21
UUCAAGCAAUAUUACGUUAC	-3.73 ± 0.36	-2.72 ± 0.23
UGUGAGCAAUAUUACGUAUA	-3.5 ± 0.4	-2.03 ± 0.21
UAGUAGCAAUAUUACGCGAC		-1.69 ± 0.29
UCGCAGCAAUAUUACGUGUU	-2.49 ± 0.092	-1.67 ± 0.11
CGAGAGCAAUAUUACGGCGC	-2.76 ± 0.21	-1.62 ± 0.21
ACGUAGCAAUAUUACGAUCU	-0.0721 ± 0.051	0.356 ± 0.065
GGGAAGCAAUAUUACGCCUU	-1.8 ± 0.17	0.48 ± 0.15
CUAUAGCAAUAUUACGAGCA	-2.91 ± 0.25	-2.36 ± 0.33
AUAGAGCAAUAUUACGGGGA		-2.44 ± 0.28
CGCCAGCAAUAUUACGAGCA	-0.418 ± 0.064	0.817 ± 0.092
UAAUAGCAAUAUUACGCGGC	-2.97 ± 0.36	-2.34 ± 0.37
GUAGAGCAAUAUUACGUAAC	-0.96 ± 0.11	-0.246 ± 0.14
GCGCAGCAAUAUUACGCUUA	-0.793 ± 0.062	-0.338 ± 0.067
UGGCAGCAAUAUUACGAGGC	-2.12 ± 0.2	
GAACAGCAAUAUUACGGAGC	-1.93 ± 0.057	-1.13 ± 0.083
ACCCAGCAAUAUUACGCACU	-0.41 ± 0.064	0.0872 ± 0.077
CUGGAGCAAUAUUACGAAAG	-3.51 ± 0.4	
UGGUAGCAAUAUUACGCCAG	-1.16 ± 0.28	-0.742 ± 0.3

Sequence	self-splicing fitness (ln) (30 °C)	self-splicing fitness (ln) (37 °C)
CCUAAGCAAUAUUACGUCCU	-3.74 ± 0.33	-2.04 ± 0.24
GUCUAGCAAUAUUACGAACA	-1.13 ± 0.13	-0.831 ± 0.11
AGGUAGCAAUAUUACGAAUG	-3.277 ± 0.026	-1.83 ± 0.037
CGUGAGCAAUAUUACGAUCU	-0.613 ± 0.088	-0.995 ± 0.14
AUCUAGCAAUAUUACGUAAA	-2.41 ± 0.15	-1.29 ± 0.14
CGUGAGCAAUAUUACGGCGG	0.333 ± 0.089	0.466 ± 0.11
GAGCAGCAAUAUUACGAUCU	-1.71 ± 0.15	-0.141 ± 0.12
CACGAGCAAUAUUACGUAGU	-3.22 ± 0.17	-2.73 ± 0.26
UCGGAGCAAUAUUACGCAGG	-2.57 ± 0.44	-2.28 ± 0.43
GUACAGCAAUAUUACGCAUU	-2.76 ± 0.14	-0.835 ± 0.087
UGCUAGCAAUAUUACGUGAC	-3.39 ± 0.35	-2.56 ± 0.41
UAUUAGCAAUAUUACGUGUU	-3.04 ± 0.29	-2.86 ± 0.32
UUUAAGCAAUAUUACGUAGU	-2.62 ± 0.13	-2.13 ± 0.18
AAUAAGCAAUAUUACGAGAG	-2.47 ± 0.14	-2.01 ± 0.2
CGACAGCAAUAUUACGCCUC	-2.24 ± 0.2	-0.498 ± 0.2
AGGUAGCAAUAUUACGGAGU	-3.487 ± 0.021	-1.72 ± 0.034
AUAUAGCAAUAUUACGAUCC	-0.6 ± 0.16	-0.578 ± 0.28
UGGCAGCAAUAUUACGUCCC	0.385 ± 0.14	-0.074 ± 0.19
GCGUAGCAAUAUUACGCGGU	-2.42 ± 0.29	-2.48 ± 0.3
UCCCAGCAAUAUUACGUCAG	-3.74 ± 0.16	-2.83 ± 0.16
UCGUAGCAAUAUUACGGCGG	-2.41 ± 0.14	-0.883 ± 0.15
GCAUAGCAAUAUUACGGGGA	-3.23 ± 0.28	-2.37 ± 0.19
AUGCAGCAAUAUUACGACCG	-1.66 ± 0.29	-1.07 ± 0.3
CGCAAGCAAUAUUACGUAGU	-3.1 ± 0.097	-2.75 ± 0.098
UUUCAGCAAUAUUACGGCUC	-1.77 ± 0.42	0.0864 ± 0.23
CGCUAGCAAUAUUACGCCGA	-0.916 ± 0.21	-0.258 ± 0.15

Sequence	self-splicing fitness (ln) (30 °C)	self-splicing fitness (ln) (37 °C)
AUCCAGCAAUAUUACGAGCC	-3.17 ± 0.25	-3.32 ± 0.33
UCAGAGCAAUAUUACGGGCU	-4.78 ± 0.36	-2.46 ± 0.25
ACGGAGCAAUAUUACGAGUG		-2.8 ± 0.38
CCGCAGCAAUAUUACGGGGG	-3.71 ± 0.18	-3.2 ± 0.3
GGAGAGCAAUAUUACGUGUA	-2.77 ± 0.29	-3.17 ± 0.33
UAGUAGCAAUAUUACGAGGU	-2.28 ± 0.36	
GAUGAGCAAUAUUACGGCAC	-0.478 ± 0.098	-0.366 ± 0.16
CCCGAGCAAUAUUACGACGA	-3.44 ± 0.43	-1.6 ± 0.2
GAACAGCAAUAUUACGUUGC	-3.47 ± 0.19	-3.4 ± 0.29
AAAUAGCAAUAUUACGAUCG	-0.864 ± 0.091	-0.18 ± 0.11
CGGGAGCAAUAUUACGCUAU	-3.6 ± 0.31	-2.64 ± 0.48
AAAGAGCAAUAUUACGCCAG	-3.87 ± 0.35	-0.837 ± 0.21
AUUUAGCAAUAUUACGACUU	-0.092 ± 0.059	0.239 ± 0.067
GAGCAGCAAUAUUACGCCAG	-2.49 ± 0.42	-2.85 ± 0.34
GAUAAGCAAUAUUACGGCUG	-0.569 ± 0.067	0.0614 ± 0.1
CGGCAGCAAUAUUACGGGGU	-3.58 ± 0.19	-3.28 ± 0.31
UCUGAGCAAUAUUACGUCCU	-1.81 ± 0.39	
UACGAGCAAUAUUACGCGGG	-2.83 ± 0.22	-2.41 ± 0.45
ACUCAGCAAUAUUACGACAU	-0.385 ± 0.011	0.0786 ± 0.032
GACGAGCAAUAUUACGAAUG	-3.03 ± 0.2	-2.31 ± 0.22
CCAAAGCAAUAUUACGGUGU	-3.74 ± 0.19	-2.97 ± 0.15
AACCAGCAAUAUUACGCACA	-0.335 ± 0.054	0.326 ± 0.072
GAUGAGCAAUAUUACGUUAG	-3.42 ± 0.24	-1.81 ± 0.23
GUUUAGCAAUAUUACGCAGU	-2.92 ± 0.17	-2.05 ± 0.22
UUCUAGCAAUAUUACGAAAU	-2.85 ± 0.28	-1.75 ± 0.32
